± gives the standard deviation of the averaged measurements.

In the data set the test system is VchCAST RNA-guided transposition machinery (E. coli BL21(DE3) host, lacZ target). In words: relative integration efficiency (T-RL orientation) vs wild-type transposon end (log2 (normalized fold change)); transposon end mutated: right end (5 bp flank + 75 bp right end); higher = more efficient transposition. Put shortly: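 Pools of 1549 left-end or 1849 right-end barcoded transposon variants were cloned into a pUC57 mini-transposon donor and co-transformed into E. coli BL21(DE3) with a T7-driven effector plasmid carrying a CRISPR array, tniQ-cas8-cas7-cas6 and tnsA-tnsB-tnsC. Plating used 0.1 mM IPTG at 37°C for 18 h, and input plasmids and genomic integration junctions were PCR-amplified for Illumina sequencing, with two biological output replicates and four reference barcodes. Relative integration efficiency is the log-transformed fold change of output over input barcode abundance, normalised to the reference barcodes.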
Consider “ACATTTGTTGATACCACCATCAAATGATAATTCCACCCATAAATTGATAATTATCACACCCAATTTAACTATAACGCTCTGATCATAGTCAGACCAACATTGCTACGACCCGTATTCGCACCGACAC”, for which the “relative integration efficiency (log2)” value was -2.05 ± 0.11.

“ACATTTGTTGATACAACCATAAAATGATAATTACACCCATAAATTGATAATTATCACACCCATAAATTGATATTGCCTCTGTACCGTTCGTATACGATACATTATACGAAGTTATTCGCACCGACAC”: the “relative integration efficiency (log2)” value was -1.24 ± 0.29.

For “ACATTTGTTGATACAACCATAAAATGATAATTACAACCATAAGTTGATATTTTTCACAACCATAAGTTGATATTTTCTCTGATCATAGTCAGACCAACATTGCTACGACCCGTATTCGCACCGACAC”, the “relative integration efficiency (log2)” value came to 0.0355 ± 0.25.

Consider “ACATTTGTTGATACAACCATAAAATGCGAATTACACCCATAAATTGATAATTATCACACCCATAAATTGATATTGCCTCTGATCATAGTCAGACCAACATTGCTACGACCCGTATTCGCACCGACAC”, for which the “relative integration efficiency (log2)” value was -0.945 ± 0.22.

“ACATTTGTTGATACAACCAATAAATGATAATTACACCCATAAATTGATAATGATGACACCGAATTTAACTATAACGCTCTGATCATAGTCAGACCAACATTGCTACGACCCGTATTCGCACCGACAC”: the “relative integration efficiency (log2)” value was -1.56 ± 0.22.

Regarding “ACATTTGTTGATACAACCATAAAGTGATATTTACACCCATAAATTGATATTGCTCAGTGGGTATTTAACTATAACGCTCTGATCATAGTCAGACCAACATTGCTACGACCCGTATTCGCACCGACAC”, the “relative integration efficiency (log2)” value is -0.797 ± 0.16.

“ACATTTGTTGATACAACCATAAAATGATAATTACACCCATAAATGGATTATTATCACACCCAATTTAACTATAACGCTCTGATCATAGTCAGACCAACATTGCTACGACCCGTATTCGCACCGACAC”: the “relative integration efficiency (log2)” value was -1.59 ± 0.23.

On to “ACATTTGTCGATACAACCATAAAATGATAATTCACCCATCAATTGATAATTATCACACCCCAATTTAACTATAACGCTCTGATCATAGTCAGACCAACATTGCTACGACCCGTATTCGCACCGACAC”, for which the “relative integration efficiency (log2)” value is -3.3 ± 0.52.

As for “ACATTTGTTGATACAACCATAAAATGATAATTACACCCATAAATTGATAATTATCACACCCATAAATTGATATTGCCTCTGATCATGGTGTCTCGCTTCAGCAGTCAGACCAACATTGCACCGACAC”, the “relative integration efficiency (log2)” value was -0.125 ± 0.18.

For “ACATTTGTTGATACAACCATAAAATGATAATTAATAATTATTTATAATCAGCAACACCCATAAATTGATAATTATCAACAAACGCCCGGTCGCGGTACTCTGATCATAGTCAGACCAACATTGCTAC”, the “relative integration efficiency (log2)” value is -3.18 ± 0.077.

“ACATTTGTTGATACAACCATAAAATGATAATTACTCTGATCATAGTCAGACCAACATTGCTACGACCCGTATTCGCACCGACACACCCATAAATTGATAATTATCACACCCATAAATTGATATTGCC”: the “relative integration efficiency (log2)” value was -2.59 ± 0.21.

Regarding “ACATTTGTTCATACAACCATAAAATGATAATTACACCCATAAATTCATAATTATCACACCCAATTTAACTATAACGCTCTGATCATAGTCAGACCAACATTGCTACGACCCGTATTCGCACCGACAC”, the “relative integration efficiency (log2)” value was -2.52 ± 0.32.

For “ACATTTGTAAAAAAAACCATACGTTGATTTTACGAAACCATACGCTGAAATAAAAACAACCATACCTTGAAATTGCTTATAAAGTGTACAACACTTGAGAAAGTTTACTACAGGTATGCACCGACAC”, the “relative integration efficiency (log2)” value is -7.441 ± 0.019.

On to “ACATTTGTTGATACAACCATAAAATGATAATTACACCCATAAATTGATAATTATCACACCCATAAATTGATATTGCCTCTGATCATAGTCAGATGAATTTTTATGCAAAGACCAACAGCACCGACAC”, for which the “relative integration efficiency (log2)” value was 0.552 ± 0.3.

Regarding “ACATTTGTTGATACAACCATATATTGATATCTCCAACCATAAAATGATAATTATCAGTGGGTATTTAACTATAACGCTCTGATCATAGTCAGACCAACATTGCTACGACCCGTATTCGCACCGACAC”, the “relative integration efficiency (log2)” value is -1.15 ± 0.24.

Consider “ACATTTGTTGATACACCCATAAATTGATAATTACAACCATATATTGATATCTCTCACACCCATAAATTGATATTGCCTCTGATCATAGTCAGACCAACATTGCTACGACCCGTATTCGCACCGACAC”, for which the “relative integration efficiency (log2)” value was -0.676 ± 0.13.

With “ACATTTGTTGATACAACCATAAAATGATAATTACAACCATAAAGTGATATTTATCACAACCATAAGTTGATATTTTCTCTGATCATAGTCAGACCAACATTGCTACGACCCGTATTCGCACCGACAC”, the “relative integration efficiency (log2)” value is -0.0894 ± 0.09.

Turning to “ACATTTGTTGATACAACCATAAAATGATAATTACACCCATAAATTGATAATTTCACACCCATAAATTGATATTGCCTCTGATCATAGTCAGACCAACATTGCTACGACCCGTATTCGCACCGACACT”, the “relative integration efficiency (log2)” value is -0.767 ± 0.17.

On to “ACATTAGTGGATACAACCATAAAATGATAATTACACCCATAAATTGATCATTATCACACCCAATTTAACTATAACGCTCTGATCATAGTCAGACCAACATTGCTACGACCCGTATTCGCACCGACAC”, for which the “relative integration efficiency (log2)” value is -7.5 ± 0.15.

On to “ACATTTGTTGATACAACCATAAAATGATAATTACACCCATAAATTGATAATTATCACACCCATAAATTGATATTGCCTCTGATCAAATTGTGAGCGGATAACAATTTAGTCAGACCAGCACCGACAC”, for which the “relative integration efficiency (log2)” value was -0.232 ± 0.12.

Consider “ACATTTGTTGATACAACCATAAAATGATAATTAATAATTATTTATAATCCACCCATAAATTGATAATTATCACACCCATAAATTGATATTGCCTCTGATCATAGTCAGACCAACATTGCTACGACCC”, for which the “relative integration efficiency (log2)” value was -3.09 ± 0.19.

For “ACATTTGTCGATACAACCATAAAATGATAATTACACCCATAAATTGATCATTATCACACCCAATTTAACTATAACGCTCTGATCATAGTCAGACCAACATTGCTACGACCCGTATTCGCACCGACAC”, the “relative integration efficiency (log2)” value is -1.31 ± 0.23.

As for “ACATTTGTTGATACCACCATCAAATGGTAATTACACCCATAAATTGATAATTATCACACCCAATTTAACTATAACGCTCTGATCATAGTCAGACCAACATTGCTACGACCCGTATTCGCACCGACAC”, the “relative integration efficiency (log2)” value is -2.79 ± 0.21.

In the case of “ACATTTGTTGATACAACCATAAAATGAGCATTACACCCATAAATTGATAATTATCACACCCATAAATTGATATTGCCTCTGATCATAGTCAGACCAACATTGCTACGACCCGTATTCGCACCGACAC”, the “relative integration efficiency (log2)” value was -0.394 ± 0.049.

On to “ACATTTGTTGATACAACCATAAAATGATAATTACACCCATTAATTGATAATTGTGACACCGAATTTAACTATAACGCTCTGATCATAGTCAGACCAACATTGCTACGACCCGTATTCGCACCGACAC”, for which the “relative integration efficiency (log2)” value was -1.29 ± 0.37.

In the case of “ACATTAGTGGATACAACCATAAAATGATAATTACACCCATAAATTCATAATTATCACACCCAATTTAACTATAACGCTCTGATCATAGTCAGACCAACATTGCTACGACCCGTATTCGCACCGACAC”, the “relative integration efficiency (log2)” value is -7.6 ± 0.5.

“ACATTTGTTGATACAACCATATATTGATATCTCCAACCATAAAATGATAATTATCACAACCATATATTGATATCTCCTCTGATCATAGTCAGACCAACATTGCTACGACCCGTATTCGCACCGACAC”: the “relative integration efficiency (log2)” value was -0.5854 ± 0.0047.

In the case of “ACATTTGTTGATACAACCATAAAATGATAATTACACCCATAAATTGAGCCGTATCACACCCATAAATTGATATTGCCTCTGATCATAGTCAGACCAACATTGCTACGACCCGTATTCGCACCGACAC”, the “relative integration efficiency (log2)” value is -1.03 ± 0.093.

For the sequence “ACATTTGTTGATACAACCATAAAATGATAATTTGTGCCATAAATTGATAATTATCACACCCATAAATTGATATTGCCTCTGATCATAGTCAGACCAACATTGCTACGACCCGTATTCGCACCGACAC”, the “relative integration efficiency (log2)” value was -1.7 ± 0.25.

As for “ACATTTGTTGATACAACCATTAAATAATAATTCCACCCATAAATTGATAATTATCACACCCAATTTAACTATAACGCTCTGATCATAGTCAGACCAACATTGCTACGACCCGTATTCGCACCGACAC”, the “relative integration efficiency (log2)” value is -1.71 ± 0.2.

As for “ACATTTGTTGATACAACCATAAAATGATAATTACACCCATCCCGTGATAATTATCACACCCATAAATTGATATTGCCTCTGATCATAGTCAGACCAACATTGCTACGACCCGTATTCGCACCGACAC”, the “relative integration efficiency (log2)” value was -1.77 ± 0.12.

Take “ACATTTGTTGATACAACCATAAAATGATAATTAACACCCATAAATTGATAATTATCACACCCATAAATTGATATTGCCTCTGATCATAGTCAGACCAACATTGCTACGACCCGTATTCGCACCGACA”: the “relative integration efficiency (log2)” value is -0.572 ± 0.11.
